Data from patent publication US20160024513, “MAIZE STRESS RELATED TRANSCRIPTION FACTOR 18 AND USES THEREOF” (PIONEER HI-BRED INTERNATIONAL INC., published 2016).

Tests used:
Conditions in all cases: tags: 20 aa N-terminal tag incl; 6xHis (pET28)
ZmSRTF18-del = ZmSRTF18-del (Zea mays); test: EMSA; no DTT; did not appear to bind
Description: (§1) In gel-shift assays, also known as electrophoretic mobility shift assays (EMSA), DNA with bound protein will traverse the gel more slowly than DNA without bound protein. Thus, gel shift assays indicate whether a protein binds to a specific DNA fragment. The gel shift assays of FIG. 6 were performed using the Molecular Probes™ EMSA Kit (E33075), which provides background information, materials, and methods for gel shift experiments. The assays were done in the presence or in the absence of DTT (dithiothreitol), as it is not certain which condition most accurately reflects the in vivo condition. DNA was stained with SYBR® Green according to the manufacturer's protocol.

ZmSRTF18 (SPL VAR4) [1] = biological target: ZmSRTF18 (SPL VAR4) (Zea mays); test: EMSA; with or without DTT; strong and specific also with 300 mM KCl and salmon DNA
Sequence of ZmSRTF18 (SPL VAR4) (Zea mays) (chain, as listed by the source): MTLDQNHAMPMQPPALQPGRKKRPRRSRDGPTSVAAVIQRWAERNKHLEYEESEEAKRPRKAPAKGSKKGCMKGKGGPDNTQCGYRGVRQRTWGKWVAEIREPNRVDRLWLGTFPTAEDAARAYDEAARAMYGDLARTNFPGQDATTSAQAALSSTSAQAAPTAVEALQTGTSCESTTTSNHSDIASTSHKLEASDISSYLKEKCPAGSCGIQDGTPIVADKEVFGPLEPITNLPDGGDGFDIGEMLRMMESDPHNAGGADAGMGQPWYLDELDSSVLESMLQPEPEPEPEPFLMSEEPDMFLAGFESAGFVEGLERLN
Description: as §1
(§2) To determine whether DNA binding was specific, and to examine binding of the less severely truncated proteins ZmSRTF18-del (ALT5) (SEQ ID NO: 26) and ZmSRTF18-del (ALT6) (SEQ ID NO: 27), further gel shift experiments were performed in the presence of DTT with the same 34 bp DNA fragment, or with the corresponding fragment that had the DRE element ACCGAC mutated to TTTTTT. Conditions were also optimized to reduce nonspecific binding by adding 300 mM KCl and sheared salmon DNA.

[2] = biological target: ZmSRTF18 (SPL VAR4) (C71S) (Zea mays, C71S); test: as above
Sequence of ZmSRTF18 (SPL VAR4) (C71S) (Zea mays, C71S) (chain, as listed by the source C71S | C71S C71S): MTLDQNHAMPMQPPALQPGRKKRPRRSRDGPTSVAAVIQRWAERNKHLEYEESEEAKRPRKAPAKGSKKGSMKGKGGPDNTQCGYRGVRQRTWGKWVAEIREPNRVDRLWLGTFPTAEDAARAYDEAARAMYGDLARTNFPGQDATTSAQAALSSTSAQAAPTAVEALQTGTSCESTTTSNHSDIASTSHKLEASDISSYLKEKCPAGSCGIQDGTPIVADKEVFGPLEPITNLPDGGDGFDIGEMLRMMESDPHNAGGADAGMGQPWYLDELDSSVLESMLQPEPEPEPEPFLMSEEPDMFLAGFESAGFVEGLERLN
Description: as §1, §2

ZmSRTF18-del (ALT2) = ZmSRTF18-del (ALT2) (Zea mays); test: EMSA; with or without DTT; obvious gel shift
Sequence of ZmSRTF18-del (ALT2) (Zea mays) (chain, as listed by the source): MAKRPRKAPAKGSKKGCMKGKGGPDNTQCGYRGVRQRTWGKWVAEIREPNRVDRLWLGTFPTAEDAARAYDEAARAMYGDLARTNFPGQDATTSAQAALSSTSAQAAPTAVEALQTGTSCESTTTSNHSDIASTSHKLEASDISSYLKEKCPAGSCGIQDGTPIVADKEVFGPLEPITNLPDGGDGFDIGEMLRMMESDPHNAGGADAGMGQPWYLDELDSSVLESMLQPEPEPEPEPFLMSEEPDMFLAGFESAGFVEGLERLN
Description: as §1, §2

ZmSRTF18-del (ALT6) [3] = biological target: ZmSRTF18-del (ALT6) (Zea mays); test: EMSA; DTT, 300 mM KCl, sheared salmon DNA; strong specific binding
Sequence of ZmSRTF18-del (ALT6) (Zea mays) (chain, as listed by the source): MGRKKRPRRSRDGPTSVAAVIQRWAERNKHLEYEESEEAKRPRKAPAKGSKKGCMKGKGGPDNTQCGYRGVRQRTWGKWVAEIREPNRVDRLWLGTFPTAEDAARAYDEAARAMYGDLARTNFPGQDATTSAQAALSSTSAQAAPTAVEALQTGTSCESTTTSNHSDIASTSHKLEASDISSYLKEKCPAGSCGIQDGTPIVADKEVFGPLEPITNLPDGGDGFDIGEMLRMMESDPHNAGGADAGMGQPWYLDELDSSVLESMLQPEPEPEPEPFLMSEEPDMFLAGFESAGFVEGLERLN
Description: as §1, §2

ZmSRTF18-del (ALT6) [4] = biological target: ZmSRTF18-del (ALT6) (Zea mays); test: EMSA; DTT, 300 mM KCl, salmon DNA; binding to DRE stated specific versus this mutant
Description: as §1, §2

ZmSRTF18 (SPL VAR4) [5] = biological target: ZmSRTF18 (SPL VAR4) (Zea mays); test: as above
Description: as §1, §2

[6] = biological target: ZmSRTF18 (SPL VAR4) (C71S) (Zea mays, C71S); test: as above
Description: as §1, §2

Sequence of ZmSRTF18-del (Zea mays) (chain, as listed by the source): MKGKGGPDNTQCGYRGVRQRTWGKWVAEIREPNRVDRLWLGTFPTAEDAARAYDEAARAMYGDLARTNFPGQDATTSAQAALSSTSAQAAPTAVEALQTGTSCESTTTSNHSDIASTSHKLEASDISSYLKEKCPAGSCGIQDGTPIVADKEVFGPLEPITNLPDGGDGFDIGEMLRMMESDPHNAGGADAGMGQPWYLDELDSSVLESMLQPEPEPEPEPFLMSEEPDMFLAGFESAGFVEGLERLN

| Binder | binding result (ZmSRTF18-del) | binding result (ZmSRTF18 (SPL VAR4) [1]) | binding result [2] | binding result (ZmSRTF18-del (ALT2)) | binding result (ZmSRTF18-del (ALT6) [3]) | binding result (ZmSRTF18-del (ALT6) [4]) | binding result (ZmSRTF18 (SPL VAR4) [5]) | binding result [6] |
| --- | --- | --- | --- | --- | --- | --- | --- | --- |
| RAB17 promoter DRE fragment (dsDNA) DNA 1: TAAATTCAGCCTGACCGACCGCCTGCATTGAATA DNA 2: TATTCAATGCAGGCGGTCGGTCAGGCTGAATTTA | no binding | binds | binds | binds | binds | – | – | – |
| RAB17 DRE mutant fragment (dsDNA) DNA 1: TAAATTCAGCCTGTTTTTTCGCCTGCATTGAATA DNA 2: TATTCAATGCAGGCGAAAAAACAGGCTGAATTTA | – | – | – | – | – | no binding | no binding | no binding |
